Experimental findings from publication PMC5681996 are described below.

Data set [1] concerns the target T1, TDP-43 WT (UniProt Q13148 1-414). In words: CD.
The target in data set [2] is T1, TDP-43 WT. The data set is described as follows: EMSA.
In data set [3] the target is T1, TDP-43 WT. In words: CD. The source holds these as a separate data set.

T1 sequence (Q13148 whole entry): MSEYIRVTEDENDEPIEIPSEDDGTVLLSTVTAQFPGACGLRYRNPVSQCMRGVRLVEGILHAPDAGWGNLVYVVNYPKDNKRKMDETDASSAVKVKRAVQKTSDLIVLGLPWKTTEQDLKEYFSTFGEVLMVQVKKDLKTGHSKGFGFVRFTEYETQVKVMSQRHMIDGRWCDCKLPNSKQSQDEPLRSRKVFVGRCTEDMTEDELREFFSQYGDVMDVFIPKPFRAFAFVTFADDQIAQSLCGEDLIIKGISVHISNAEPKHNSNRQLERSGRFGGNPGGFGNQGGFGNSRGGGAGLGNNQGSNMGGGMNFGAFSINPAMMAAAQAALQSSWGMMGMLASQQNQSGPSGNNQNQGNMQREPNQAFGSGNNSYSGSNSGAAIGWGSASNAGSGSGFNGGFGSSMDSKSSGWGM

Take UGGAAUGGAAUGGAAUGGAA (ssRNA) [(UGGAA)4]: in data set [1], the binding result is listed as “binds”.

For UGGAAUGGAAUGGAAUGGAAUGGAAUGGAAUGGAAUGGAA (ssRNA) [(UGGAA)8], the binding result in data set [2] is recorded as “binds”.

On to UGUGUGUGUGUGUGUG (ssRNA) [(UG)8], for which, in data set [2], the binding result was “binds”.

In the case of UGUGUGUG (ssRNA) [(UG)4], the binding result in data set [3] was “binds”.
